The text below walks through data of patent US20090104657A1 (BASF AKTIENGESELLSCHAFT, published 2009).

This data set deals with the molecule itself. The experiment in a line: native polyacrylamide gel electrophoresis; self-association of the subunit.

B1: protease according to the invention from Burkholderia glumae PG1, expressed from pETpro in E. coli BL21DE3 as a fusion protein with C-terminal 6xHis-tag (enzyme)
chain: MQQRGGSMSKKIAVLAVDEFEDSELVEPLRALRKAGAEVDVISQQAGEVKGFRHADKGEAVKVDRTFDEVREGEFDALLLPGGLLRGDNRMLPAAREFVTAGKPVFAICHGGWLLGSSGVINGRKLTAWPSLQDDVKNAGGEFYDQEVVRDKDQLITSRKPDDLPAFNREALRLLGAGA
notes: also called putative protease; ThiJ/PfpI protein; not shown: C-terminal 6xHis-tag from vector pET22b
Take B1: the binding result is recorded as “binds”.
